B1: SEQ_ID_#906 (nucleic acid, listed as Homo sapiens)
DNA: TGCTTTTGTTGTTGTTTTTAATTTAAAAAGACAAAATTGTTCGCCTTGTATAGAAGTAGATACAGCTTAGAGAGCCAAGGTAACAAGAGGGGAAAAGTTTGTGTTGTCTGGTACTTTTGAGGGAGTCAGAAGCCTAAAGGGAGGCTCTAACTCATGATTCTCAGAAGACAACTGTTGTCAACAGTTCAAATGAGAACTGAACGGCCACACTCCTGCAGCTGAAAGGAGTCAATGCGAGCTGAGTTGCTCTCACCGAACAGAGTGCGTTCCCCGGGGAGGCAGGGAAAGGCCGGCTTGCACCTGCTCTGTCACCCAGCTCCACTCTTAGGACAGAAGAGGTCTGGAAAATGTCTGGG
B2: SEQ_ID_#909 (nucleic acid, listed as Homo sapiens)
DNA: TGCTTTTGTTGTTGTTTTTAATTTAAAAAGACAAAATTGTTCGCCTTGTATAGAAGTAGATACAGCTTAGAGAGCCAAGGTAACAAGAGGGGAAAAGTTTGTGTTGTCTGGTACTTTTGAGGGAGTCAGAAGCCTAAAGGGAGGCTCTAACTCATGATTCTCAGAAGACAACTGTTGTCAACAGTTCAAATGAGAACTGAACGGCCACACTCCTGCAGCTGAAAGGAGTCAATGCGAGCTGAGTTGCTCTCACCGAACAGAGTGCGTTCCCCGGGGAGGCAGGGAAAGGCCGGCTTGCACCTGCTCTGTCACCCAGCTCCACTCTTAGGACAGAAGAGGTCTGGAAAATGTCTGGG
B3: SEQ_ID_#948 (nucleic acid, listed as Homo sapiens)
DNA: AGAGGCGGGCTTCCCTCGGAAAACGGAGGGTTGAAACCCAGAAAGCTCCTCGGAGCCCTTCTGGGGTTCGGGCGATCTGGGCAGAGAACTCTCGGGTGGCAAGGAATTAAGGGCAGCGCGAACGACGGTCTCTAGACAAGTATGAAGCCTCCCCTGAGTGTGTCCGGCGCTCAGGGGGTGGACCGGGGTGTTGGTTTCAAGGAGGGGGCCATCGTTTGCACCACGGCGTCCAGAAATACTCATCCTTTGCCCTTCGGGGAGGCAACAGAGCAGCCAACTGACTGTTCTGGCCAAAGAGACTGGAGATCCAGTATCAGCAAGCTACTTTCTTGGTAAACCTCCATTTCCCAATGCTCATCTTTGTCCTCTACCCCCACCCATCCCAAGGCAAATGATGAAAACATCTATTGGATCCAGCCTTTGCTATCTTCTCCATGCTGCTCATAGTGGGTCTAGCAATGTCCCATTCTCGGTAATGTTTGGTAGGTCTAAAACATCCTCACGAAATGTTCCCCAAATGTTCTGCTCCAGCTGAGCAACTAATAACAATGGGAAGATGCAGAAAAAAAATGCATGGAGCATAATGTTAGTTTTGGGACTCGTCAGTGGCAACGTTTTAGAGATGCCATGAAGAATTCCTGGTAATAATCCTTCTTCCTACAGCATTTAGCAATGAATACTATGGGATTATGGCTAAAAGATGGTCAAGACTGCCTCAGCCATTAGGATCAGAATTCTAAGTTCCAAAGAAGAGCAAACTCAAGAGGATTTCCTCAGGCCTCTGACTATAGATGCTGCCTGGGGAGAACAGGTGCTACACTCAAAACATTCTCATTTTATTTATATCCTCCCTGAACTAGTACCCAACTCCATAACCCCAGACTCAAATAACAGAAATAAAAGCCATCTCACTGATTATAAGCTCTCTAGTTATTACAAAAATAAATAAGCATCAATCAACCAACAGGCATCAGAATGAGAAAATCACTGATTTGAGACATTCAGGCTGCAGGAAAAGAACACTTTTTGTTAATATGTAACTATATCTTCAGTAGTACAGAAAAATGAGAAGAACGAGAGTTCTTACCTGGATTTGCGGCTCACTTAAAGTAGAGCACCTGAGATGCTGGGAAATCATAAAGATAAATAACCAATCTAACAAATTCCTGCCATGAGACCAAAGTGATCCTTGACTACTCTATTAGTAAGCGACTCTGAGCCAAGAGTACGAACCTGTAAGTGGAGTGGTGGTTGGCCCATTAGAAATCTCTGAAAGATCTAAACATGACAGTTACCTTCCTACTGGACTCATACTTCTCAATTCCCTCTCCTAAAAGAATACTTTTGGGCTGGCCCCAGTGGCTCACACCTGTAATCTCGGCACTTTGGGAAGCCAAGGTGGGAGGATTGCTTGAGGACAAGAGTTTGAGACCAGCTCGGTGGAAACATAGCACCATCCATGTCTCTACC
B4: SEQ_ID_#915 (nucleic acid, listed as Homo sapiens)
DNA: CAATAGGAGAAGCCAAGAAACGCAGATGCCGATGCTTAATCAACTCCGTCTCTCCCTCTAGTGACTCGGGGATAGCTGCCCTGATGCCAAGGCGATTGTCTTCTGGAAGCAGCCACGCCGTGTGAGGTTCCTCATCACTGCCCTGCATCTCCCTGCGAGCTCTCGGGGATAATTGCAAAATCACGTTTGATTCCAGGGAGCAGAAAGCAGCAGGAGCCGTGAATTCTCCAACTCTTAACTGGTCCTCGACTGAGCCACTTTTCCCTGCCCACCCATCCCTGTGGCGGATTCATTACAGTTATCCAAAGCCGGTTTTAACTTTGCTCCCCCTGGCTCAGAAGTCTGTCAGTGGGTCCTGAGCGGTTCACCATTCAAGTTTATTCCTATCAGCCTGGAATACAATGCTCTATCTG
B5: SEQ_ID_#917 (nucleic acid, listed as Homo sapiens)
DNA: TTGTTTGGAAAGATGAAAAATTTATTAGAAAAGATCTTTAAATGGCTTTTACTAAAGCGTCATTTAACAATTTTTCATATTATAGAAACAGCTTTTCATGGATGGTGTGACTGGGTCTGTATCCAAACCCGGTTCGGTTCCTGGAGCCAACGGCGTAGTTAACACTCAGCCTCTTGCAGTTAACACTCAGCCTCTTAACTGGGAGTGGCCCTGGAGCAAGTCGCTGGAATGTTCAAGCTCCGCGTCACTCATCGGTACCAAGTTGATGATCTCTGCCTAGGGTTCTTCGCCACCCTCAGGCTCAAGTCCCAGGAGGCCTCCTCCGCTGACTTGGGTGAACAGCTCTGAGTTCCGGAGAGGGTTCGGTCTGCGGAGAAGCGCGCGAGAGACAAGCATCCTCAAGGTTCTGGTACAAAATTTGGAAAATGACCTGGCGTTGAAATCTTTACTCCTCGTTTAAAAAGACCATCGAAAGGGAAAAAATAAAAGAAATTGCAGTTTATATTTTTGTTATCCCATGAAAAATTAGCTGCAGTGTTTTCCTCTTCATGCCAAAGAGATTAATATTTACGGTGAAGACTTTTCCAGGAAGTCGTGGTTTTCTGGGGCCCTGCCTCTGAGCCTTTTGTTTCCTCCTTTTTAAAAACACCGGATGAAAGACCCAGTGTGCCTTGGATCGCAGAGCGCGGCCGCATGTCTGCTTTGA
B6: SEQ_ID_#901 (nucleic acid, listed as Homo sapiens)
DNA: CTCCTCGCCCTCCCCACCGACATCATGCTCCAGTTCCTGCTTGGATTTACACTGGGCAACGTGGTTGGAATGTATCTGGCTCAGAACTATGAT
modifications: chemistry not fully specified; the letters are possibly those of the target site
B7: SEQ_ID_#953 (nucleic acid, listed as Homo sapiens)
DNA: TGGTTTCGGTCTATTTATCCAGGGACACCACAGCTTTGGAGGCAGCAAACATGCCCATTTGTTACTATTTGCAAAGATGGTGTACACCAAACATGGGCTTTCCGTAAACAAATTAAAAAGTAATAAAGTGGCCCCATCTGCATACTAGAGCAATGTGCTTCCATTTTAATGAAGCTTGCTATAGAAAAGCCATTTGATGGCTTGTCAAAAGCGTGAATGCCTGTGGCTGAACGTGGAAGTATGCTGTGGTGCAAAGACGTAGTCCTTTCTTCCTCCAGTATGCACGGGGCACCTGCCACACCTGCTGCAAGGACCTGGTCCTGCCCCTAGGCCATCTGCTACGCCAAGGAGACCCAGGTCTTTCCAGTTTCTACCAGGCCCTTTAATGCTCTATCCTGTGGCCCACCCAAGGTTGCAGAGCTGGTAAGCTCTGGAGGTTGAACACAGGCAGTCTGGGCAGAGTGCCTGCTCACTGTCCTGCCTCTCCT
B8: SEQ_ID_#840 (nucleic acid, listed as Homo sapiens)
DNA: TACCACACATCTTCTTTATTAATGCATTGACAATCAGTGAAGACAATGAAAACCCACCACTTTTGTCCGTGAACTGAGAAAGAAAATGGCAATGTCATATGGCATTAATGATGCATGAGATCTATGGGTGTAGTGTCACGTCTAGGCGTGTAGTAATCCAGTCTTCGGCCTTACTCCAGGGAGAAAGATTCAGCTTTGTTACTTTCCAGTCACTCTCTCCCGTAACACAGCACCAAGACCGTTTAAAGCACTTAATTAATTCACTTCAGCTTCGCTGGAGAGGTCTCAGGGTTCCCGAGACTCCATTACATAATATCTTTCACAAAGTCTATTCCCAGCTCGAATGGAAGATGGATTCTCATCCAGTGTGCGG

What follows are molecules tested on EE transcriptome (assay: Genome-wide microarray transcript profiling of esophageal biopsies, EE patients vs normal individuals (EE transcriptome)). Settings: transcript level in esophageal biopsies of EE patients compared to normal individuals (NL); Affymetrix Human Genome U133 plus 2; p<0.01; >1 up-regulated, <1 down-regulated.
Experimental: Esophageal tissue obtained from patients previously diagnosed with EE was analyzed. Diagnosis was based on analysis of excised tissue from endoscopic biopsy. Tissues from patients with EE, as well as patients not having EE (controls) were subjected to genome-wide microarray transcript profiling (Affymetrix GeneChip). All work was performed at the Core facility at Children's Hospital Medical Center (Cincinnati Ohio).
Briefly, RNA quality was first assessed using the Agilent bioanaiyzer (Agilent Technologies, Palo Alto Calif.). Only mRNA having a ratio of 28S/18S between 1.3 and 2 were subsequently used. RNA was converted to cDNA with Superscript choice for cDNA synthesis (Invitrogen, Carlsbad Calif.) and subsequently converted to biotinylated cRNA with Enzo High Yield RNA Transcript labeling kit (Enzo Diagnostics, Farmingdale N.Y.). After hybridization to the GeneChip (Affymetrix, Santa Clara Calif.), the chips were automatically washed and stained with streptavidin-phycoerythrin using a fluidics system. The chips were scanned with a Hewlett Packard GeneArray Scanner. Over 30,000 unique genes were screened.
Levels of gene transcripts were determined from data image files, using algorithms in the Microarray Analysis Suite software (Affymetrix). Levels from chip to chip were compared by global scaling. Each gene was typically represented by a probe set of 16 to 20 probe pairs. Each probe pair consisted of a perfect match oligonucleotide and a mismatch oligonucleotide that contained a one base mismatch at a central position. Two measures of gene expression were used, absolute call and average difference. Absolute call is a qualitative measure in which each gene is assigned a call of present, marginal or absent, based on the hybridization of the RNA to the probe set. Average difference is a quantitative measure of the level of gene expression, calculated by taking the difference between […] of every probe pair and averaging the differences over the entire probe set. Data were normalized and an EE transcriptome gene list was created with results having p<0.01 (Welch t-test with or without false rate discovery) and ≥1.5-fold change.
For evaluation of EE using clinical and/or physical assessment, biopsy tissues (obtained from the distal esophagus during routine endoscopy) were submerged in formalin for routine pathological analysis with hematoxylin and eosin staining. Diagnosis was established based on the maximum eosinophil count per high power field (hpf) and basal layer expansion according to method known in the art (e.g., established criteria in Rothenberg et al., Pathogenesis and clinical features of eosinophilic esophagitis. J Allergy Clin Immunol 108 (2001) 891; Attwood et al., Esophageal eosinophilia with dysphagia. A distinct clinicopathologic syndrome. Dig Dis Sci 38 (1993)109; Fox et al., Eosinophilic esophagitis: its not just kid's stuff. Gastrointest Endosc 56 (2002) 26, each of which is expressly incorporated by reference herein in its entirety. Normal individuals (NL), n=13, served as a control and were defined as having 0 eosinophils/hpf and no basal layer expansion. Individuals with EE (n=76) were defined as having >24 eosinophils/hpf and extensive basal layer hyperplasia (expansion to about >⅓ of epithelium).
The data were analyzed by cluster analysis and ordered (standard correlation (A) and distance (B)) using Genespring software. […] Each column represented a separate individual and each line a gene. RNA from each patient was subjected to chip analysis using Affymetrix Human Genome U133 GeneChip plus 2.

Molecule | Fold Change
B1 | 0.64
B2 | 0.639
B3 | 0.629
B4 | 0.638
B5 | 0.637
B6 | 0.643
B7 | 0.627
B8 | 0.665
